Results from patent publication US20170368132A1 (published 2017).

Tests used:
Rad51 (F86E; A89E) = biological target: T1, Rad51 (F86E; A89E) (human, UniProt Q06609 1-339); experiment: yeast two-hybrid, human RAD51 mutant
T1 construct: Human RAD51 mutant tested by Y2H; also called human RAD51 F86E A89E
T1 chain: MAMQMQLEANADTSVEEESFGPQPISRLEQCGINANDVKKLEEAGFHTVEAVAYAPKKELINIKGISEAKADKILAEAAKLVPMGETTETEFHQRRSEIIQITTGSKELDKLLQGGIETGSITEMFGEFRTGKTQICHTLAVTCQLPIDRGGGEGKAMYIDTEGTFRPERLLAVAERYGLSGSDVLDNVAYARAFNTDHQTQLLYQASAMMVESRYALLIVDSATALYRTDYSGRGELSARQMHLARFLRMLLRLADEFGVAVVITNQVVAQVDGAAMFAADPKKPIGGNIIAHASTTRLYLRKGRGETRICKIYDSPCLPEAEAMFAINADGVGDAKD
Description: (§1) The ability of peptides to bind human RAD51 with various mutations was then tested by Y2H assay. […] While mutations affecting BRCA2 binding had no effect on peptide binding, mutations that affected RAD51-AP1 binding did disrupt peptide binding. As these mutations were at residues 202, 205, and 206, they were consistent with the previous fusion data showing binding somewhere in the 190-218 region, and indicated the peptide SEQ ID NO.:5 contacts at least residues 202, 205, and 206 of RAD51.

Rad51 (S208E; A209D) = biological target: T2, Rad51 (S208E; A209D) (human, UniProt Q06609 1-339); experiment: yeast two-hybrid, human RAD51 mutant
T2 construct: Human RAD51 mutant tested by Y2H; also called human RAD51 S208E A209D
T2 chain: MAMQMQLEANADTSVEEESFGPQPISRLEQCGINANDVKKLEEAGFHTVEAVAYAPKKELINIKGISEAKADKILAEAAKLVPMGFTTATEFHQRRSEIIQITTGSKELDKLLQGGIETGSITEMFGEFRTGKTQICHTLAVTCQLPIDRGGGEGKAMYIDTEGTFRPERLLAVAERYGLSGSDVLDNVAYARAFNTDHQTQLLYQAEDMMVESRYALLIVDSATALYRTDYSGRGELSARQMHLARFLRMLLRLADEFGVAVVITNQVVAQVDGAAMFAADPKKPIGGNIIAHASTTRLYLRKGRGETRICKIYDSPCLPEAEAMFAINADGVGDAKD
Description: as §1

[1] = biological target: T3, Rad51 (S208L; A209E; M210A) (human, UniProt Q06609 1-339); experiment: yeast two-hybrid, human RAD51 mutant
T3 construct: Human RAD51 mutant tested by Y2H; also called human RAD51 S208L A209E M210A
T3 chain: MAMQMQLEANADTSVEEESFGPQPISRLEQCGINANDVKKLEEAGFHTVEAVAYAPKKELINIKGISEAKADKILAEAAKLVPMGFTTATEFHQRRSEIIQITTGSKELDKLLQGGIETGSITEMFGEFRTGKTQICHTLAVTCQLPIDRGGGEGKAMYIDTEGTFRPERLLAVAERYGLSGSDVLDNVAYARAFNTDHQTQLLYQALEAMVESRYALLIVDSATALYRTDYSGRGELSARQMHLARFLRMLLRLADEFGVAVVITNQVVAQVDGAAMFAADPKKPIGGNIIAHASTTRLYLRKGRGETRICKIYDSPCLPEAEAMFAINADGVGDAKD
Description: as §1

Rad51 (A190L; A192L) = biological target: T4, Rad51 (A190L; A192L) (human, UniProt Q06609 1-339); experiment: yeast two-hybrid, human RAD51 mutant
T4 construct: Human RAD51 mutant tested by Y2H; also called human RAD51 A190L A192L
T4 chain: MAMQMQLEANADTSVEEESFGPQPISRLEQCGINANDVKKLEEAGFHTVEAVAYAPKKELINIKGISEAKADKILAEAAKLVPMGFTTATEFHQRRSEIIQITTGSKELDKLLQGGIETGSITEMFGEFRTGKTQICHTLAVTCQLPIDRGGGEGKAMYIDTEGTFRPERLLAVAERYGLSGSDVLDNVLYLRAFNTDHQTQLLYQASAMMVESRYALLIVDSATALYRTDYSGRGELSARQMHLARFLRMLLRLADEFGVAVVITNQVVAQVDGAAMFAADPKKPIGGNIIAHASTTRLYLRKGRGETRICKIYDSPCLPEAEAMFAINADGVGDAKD
Description: as §1

[2] = biological target: T5, Rad51 (Q202R, Y205D, Q206A) (human, UniProt Q06609 1-339); experiment: yeast two-hybrid, human RAD51 mutant
T5 construct: Human RAD51 mutant tested by Y2H; also called human RAD51 Q202R Y205D Q206A
T5 chain: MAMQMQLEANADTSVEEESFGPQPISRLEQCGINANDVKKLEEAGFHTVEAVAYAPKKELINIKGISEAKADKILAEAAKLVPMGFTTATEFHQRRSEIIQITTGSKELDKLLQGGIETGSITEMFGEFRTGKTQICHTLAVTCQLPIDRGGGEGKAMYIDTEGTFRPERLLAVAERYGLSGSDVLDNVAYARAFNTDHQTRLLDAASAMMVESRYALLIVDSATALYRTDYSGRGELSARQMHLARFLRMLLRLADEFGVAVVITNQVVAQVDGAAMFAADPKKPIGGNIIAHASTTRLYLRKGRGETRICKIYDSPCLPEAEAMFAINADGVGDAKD
Description: as §1

H. sapiens Rad51 = biological target: T6, H. sapiens Rad51 (H. sapiens, UniProt Q06609 1-339); experiment: yeast two-hybrid, growth on -ADE -HIS
T6 construct: Expressed in yeast as a two-hybrid fusion; also called human RAD51
T6 sequence: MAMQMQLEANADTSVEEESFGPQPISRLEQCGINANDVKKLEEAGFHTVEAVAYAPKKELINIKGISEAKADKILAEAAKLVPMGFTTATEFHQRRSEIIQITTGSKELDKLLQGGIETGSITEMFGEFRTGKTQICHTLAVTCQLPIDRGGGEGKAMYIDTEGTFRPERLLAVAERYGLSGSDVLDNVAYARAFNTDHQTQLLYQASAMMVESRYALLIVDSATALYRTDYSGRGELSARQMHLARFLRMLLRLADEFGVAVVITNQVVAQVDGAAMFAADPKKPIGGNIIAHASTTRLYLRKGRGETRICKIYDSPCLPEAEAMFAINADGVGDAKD
Description: RAD51-binding peptides were tested for ability to bind RAD51 of several different species using a “conventional” Y2H assay, where interaction between the two-hybrid pair drove expression of ADE2 and HIS genes. In this Y2H assay the two-hybrid pair was RAD51 and the compound 5 peptide sequence (SEQ ID NO.:5), so that cells having the interaction would survive (+) and cells not having the interaction would die (−) on selective media (−ADE, −HIS).

B1: compound 5 peptide sequence (SEQ ID NO.:5) (peptide)
peptide: KRRRRRRRKRLGVRLRVSRML
- binding result (Rad51 (F86E; A89E)): binds
- binding result (Rad51 (S208E; A209D)): binds
- binding result [1]: binds
- binding result (Rad51 (A190L; A192L)): binds
- binding result [2]: no binding
- binding result (H. sapiens Rad51): binds
